Experimental findings from the emibetuzumab library of Makowski et al. (2022) are described below.

B1: VH:VL chains; a variant is named by its letters at X, in order (parent)
chain 1: QVQLVQSGAEVKKPGASVKVSCKASGYTFTDYXMHWVRQAPGQGLEWMGXVNPNXXXTTYNQKFEGRVTMTTDTSTSTAYMELRSLRSDDTAVYYCARXNXLDXWGQGTTVTVSS
chain 2: DIQMTQSPSSLSASVGDRVTITCSVSSSVSSIYLHWYQQKPGKAPKLLIYSTSNLASGVPSRFSGSGSGTDFTLTISSLQPEDFATYYCQVYSGYPLTFGGGTKVEIK

The variants in this data set derive from B1. The data set can be described thus: yeast display scFab, FACS + sequencing. The procedure, abridged:
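For the non-specific binding call, a heavy-chain CDR mutant scFab library on the yeast surface was FACS-sorted and samples from two replicates were deep sequenced. Cells were labelled with anti-Myc and either biotinylated ovalbumin (260 μg/mL in PBSB, 3 h, room temperature) or soluble membrane proteins (130 μg/mL, 20 min on ice), with gates on the top 25% and bottom 10% of binders. With membrane protein and ovalbumin samples pooled, a sequence in ≥3 of 4 positive samples and no negatives was scored positive, and the converse rule scored negatives.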
In the case of DKEGGSAD, the non-specific binding call is listed as “no binding”.
Next, FKARDSGD: “binds”; FKARGSVD: “binds”.
Take VKARGSLA: the non-specific binding call is listed as “binds”.
Take SKAKGSAA: the non-specific binding call is on record as “binds”.
As for SKAGSDVA, the non-specific binding call is given as “no binding”.
Next, YKARGSGS: “binds”.
The value for YKARGSGA was “binds”.
Next, YKARGSWD: “binds”.
In the case of YKEGDSGV chain 1 R87K, the non-specific binding call was “no binding”.
Next, YKARGALS: “binds”; SKAKGSGA: “binds”; SKAKGSGV: “binds”.
On to FKEGNSLD, for which the non-specific binding call is “no binding”.
Next, DKEGGYSV: “no binding”.
The value for AKEADDVA was “no binding”; that for DKEGGSGV was “no binding”.
The value for YKEGGAGD was “no binding”.
Regarding YKEGAYAD, the non-specific binding call is listed as “binds”.
In the case of DKEGGDVA, the non-specific binding call is on record as “no binding”.
Next, DKEGGDVV: “no binding”.
As for DKEGGDVD, the non-specific binding call is “no binding”.
On to SKEGGVGV, for which the non-specific binding call was “binds”.
The value for DKEEADGV was “no binding”; that for YKARGSLV was “binds”.
Next, YKARGSLY: “binds”; FKARGASV: “binds”; YKAKGALD: “binds”.
Next, DKEGGAVV: “no binding”.
VKARGSGA: the non-specific binding call is “binds”.
Next, VKARGSGD: “binds”; VKARGSGV: “binds”.
The value for VKEADDVA was “no binding”; that for VKARNDLV was “no binding”; that for YKARGSSS was “binds”.
Next, YKARSALF: “binds”; VKEKGALD: “binds”; YKARGAGA: “binds”.
For the variant YKARGAGV, the non-specific binding call is on record as “binds”.
As for VKAGSAAA, the non-specific binding call is reported as “no binding”.
As to DKEGGSLD, the non-specific binding call is “no binding”.
The value for DKEGGSLV was “no binding”; that for VKARGSAF was “binds”; that for VKARGSAV was “binds”.
The value for FKATTSGA was “binds”; that for FKATTVVD chain 1 S88F was “binds”; that for DKATGDAY was “no binding”.
On to VKEGGDGA, for which the non-specific binding call is recorded as “no binding”.
The value for AKATADVD was “binds”; that for YKAGGSLF was “binds”; that for VKAKGAAA was “binds”.
Next, FKAGSSGV: “binds”; DKAKGDGS: “no binding”.
For SKAGGVGA, the non-specific binding call is given as “binds”.
YKEEDDAV: the non-specific binding call was “no binding”.
The value for SKAKGSSD was “binds”; that for VKAKDAGY was “binds”.
Next, YKEKGAVD: “binds”; DKEEDSLA: “no binding”.
The value for VKEKGDLA was “no binding”.
As for YKAKGAAA, the non-specific binding call was “binds”.
As for YKAKGAAD, the non-specific binding call is reported as “binds”.
The value for FKAKGAWD was “binds”.
Turning to VKAGSDVA, the non-specific binding call was “no binding”.
Turning to DKEGGAAD, the non-specific binding call was “no binding”.
The value for DKEGGAAA was “no binding”; that for DKEGGAAV was “no binding”; that for YKAGGSGV was “binds”.
Turning to YKAGGYSD, the non-specific binding call is “binds”.
With VKATAVAV, the non-specific binding call was “binds”.
Next, DKEGGDAV: “no binding”.
With DKEGGDAS, the non-specific binding call is given as “no binding”.
As for YKAKGSAV, the non-specific binding call is given as “binds”.
Regarding YKARGAWA, the non-specific binding call is given as “binds”.
Turning to YKARGAWS, the non-specific binding call was “binds”.
For YKARGAWD, the non-specific binding call is given as “binds”.
The value for DKEGGSSS was “no binding”; that for DKEGGSSA was “no binding”.
The value for VKEGGAVV was “no binding”.
The value for FKEAGAVY was “binds”.
With VKEKGAWS, the non-specific binding call is “no binding”.
Next, VKEKGAWV: “binds”.
The value for VKEKGAWY was “binds”; that for VKEKGDGS was “no binding”.
In the case of VKARSAGV, the non-specific binding call is on record as “binds”.
The value for YKARGAAD was “binds”; that for YKARGAAY was “binds”; that for VKARGAGS was “binds”.
In the case of VKARGAGV, the non-specific binding call was “binds”.
Next, SKEAGYSV: “binds”; DKEGGDGA: “no binding”; DKEGGDGY: “no binding”.
For the variant DKEGGDGV, the non-specific binding call was “no binding”.
Next, VKEADAWV: “no binding”.
Next, YKARGSAA: “binds”; FKARGSGV: “binds”; FKAGGSGA: “binds”.
Next, FKARDSSA: “binds”; YKARTSSS: “binds”; VKARGAAV: “binds”.
Regarding YKEGGSGD, the non-specific binding call is listed as “no binding”.
The value for VKARGSVA was “binds”.
Next, VKARGSVD: “binds”; VKEGGDVV: “no binding”.
Next, VKEGGDVA: “no binding”; DKEGGDLA: “no binding”; VKEGGSSA: “no binding”.
In the case of SKAKGFGV, the non-specific binding call was “binds”.
For YKARGAVY, the non-specific binding call is given as “binds”.
Regarding FKARGALV, the non-specific binding call was “binds”.
With SKAKGAWD, the non-specific binding call is given as “binds”.
Next, SKAKGAWS: “binds”.
The value for YKAKGAGD was “binds”; that for FKEGGSAA was “binds”.
For VKAGGSLY, the non-specific binding call was “binds”.
Regarding VKEGGSAD, the non-specific binding call is listed as “binds”.
As for DKEGGFGV, the non-specific binding call is on record as “no binding”.
The value for YKEKGDGA was “no binding”.
Consider AKAGSYGV, for which the non-specific binding call was “binds”.
Next, YKAKGASV: “binds”; YKEEDSLD: “no binding”.
